Patent publication US9156883B2, “Binding molecules for human factor VIII and factor VIII-like proteins” (DYAX CORP., priority 1999, dated 2015)
Positions of bridges follow the written chain, without caps; N, C: chain ends. No end group written: not given here. *: point of attachment. NHNH2 = NN*

How the values were obtained:
[1] = molecular target: T1, factor VIII-like polypeptide (REFACTO®) (Homo sapiens, UniProt P00451); assay: Affinity chromatography capture and elution of REFACTO® on immobilized peptide columns; assay type: binding; conditions: bound material eluted in the presence of ethylene glycol
T1 construct: amino acids 1-743 and 1638 through 2332 of human factor VIII; purchased Genetics Institute, Inc. (Cambridge, Mass.)
T1 sequence (P00451 20-762): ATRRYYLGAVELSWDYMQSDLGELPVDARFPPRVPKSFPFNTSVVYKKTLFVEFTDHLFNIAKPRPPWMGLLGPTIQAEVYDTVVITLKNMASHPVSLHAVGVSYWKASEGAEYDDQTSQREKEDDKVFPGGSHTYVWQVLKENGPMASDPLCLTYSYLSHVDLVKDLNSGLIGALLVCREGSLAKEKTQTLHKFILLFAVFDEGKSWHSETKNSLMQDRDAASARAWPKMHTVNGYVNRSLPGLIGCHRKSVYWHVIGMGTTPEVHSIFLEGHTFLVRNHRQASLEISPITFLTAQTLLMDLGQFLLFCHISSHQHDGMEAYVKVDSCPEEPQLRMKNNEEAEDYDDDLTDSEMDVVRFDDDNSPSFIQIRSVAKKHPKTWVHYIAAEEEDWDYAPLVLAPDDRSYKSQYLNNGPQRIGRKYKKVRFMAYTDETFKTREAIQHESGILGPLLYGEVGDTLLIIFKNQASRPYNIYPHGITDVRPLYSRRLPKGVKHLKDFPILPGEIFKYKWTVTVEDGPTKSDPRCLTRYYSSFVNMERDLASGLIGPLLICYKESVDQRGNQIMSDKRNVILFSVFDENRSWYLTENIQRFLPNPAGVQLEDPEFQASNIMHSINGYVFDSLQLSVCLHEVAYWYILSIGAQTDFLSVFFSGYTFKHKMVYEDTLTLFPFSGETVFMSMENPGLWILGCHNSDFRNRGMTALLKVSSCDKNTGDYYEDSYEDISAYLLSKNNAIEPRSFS
T1 sequence (P00451 1657-2351): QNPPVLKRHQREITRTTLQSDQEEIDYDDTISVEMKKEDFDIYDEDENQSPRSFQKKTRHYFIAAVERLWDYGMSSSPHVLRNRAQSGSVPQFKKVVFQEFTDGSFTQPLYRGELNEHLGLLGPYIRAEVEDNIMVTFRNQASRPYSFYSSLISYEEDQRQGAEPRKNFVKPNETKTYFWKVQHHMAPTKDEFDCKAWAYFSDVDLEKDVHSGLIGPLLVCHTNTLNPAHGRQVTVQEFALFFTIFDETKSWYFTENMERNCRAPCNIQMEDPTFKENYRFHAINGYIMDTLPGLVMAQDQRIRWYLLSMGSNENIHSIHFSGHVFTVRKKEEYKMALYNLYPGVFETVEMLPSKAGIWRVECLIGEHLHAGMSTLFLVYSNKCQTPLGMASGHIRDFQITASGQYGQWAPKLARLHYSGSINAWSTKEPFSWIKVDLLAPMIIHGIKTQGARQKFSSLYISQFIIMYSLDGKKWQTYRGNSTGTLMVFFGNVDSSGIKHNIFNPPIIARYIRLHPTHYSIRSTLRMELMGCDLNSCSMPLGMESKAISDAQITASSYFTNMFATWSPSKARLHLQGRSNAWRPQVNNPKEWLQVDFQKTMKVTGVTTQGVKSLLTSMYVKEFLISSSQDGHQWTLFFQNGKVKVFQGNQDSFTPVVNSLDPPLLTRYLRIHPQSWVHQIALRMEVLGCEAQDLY
Experimental: The candidate ligands were immobilized onto a formyl-substituted ethylene glycol-methacrylate chromatographic resin (Toyopearl Formyl 650-M, pore size of ˜1000 Å; TosoHaas, Montgomeryville, Pa.). The hydrazide-containing peptides were immobilized by facilitating hydrazone bond formation, the GI-1 and -2 peptides were immobilized via reductive amination using NaCNBH3. The amount of polypeptide immobilized on the solid support was determined by quantifying the amount of free polypeptide remaining in solution. The amount of ligand immobilized per ml of resin was in the range of 0.7-1.5 μmol for the hydrazine-immobilized peptides.
The nine peptides were evaluated by affinity chromatography for their ability to capture the REFACTO® described in Example I, under specific binding and release conditions.
The factor VIII-like polypeptide (REFACTO®) was diluted in SP Buffer to a concentration of 150 μg/ml. The affinity resins (˜350 μl) were each packed into glass columns, and approximately 150 μg of the factor VIII target was applied to the prepared affinity columns at a flow rate of 200 μl/minute (linear velocity of 170 cm/hour). […] Fractions were collected and the mass and activity of recovered factor VIII-like polypeptide was determined by reversed-phase HPLC and by enzymatic assay.
For the mass determination, a standard curve with REFACTO® (0-200 μg) was generated and the amount present in each fraction was calculated according to techniques well known in the art. Reversed-phase HPLC in the presence of 20 mM EDTA was used to disrupt the REFACTO® molecule into its component subunits, which were eluted with a gradient of acetonitrile/0.01% TFA. The activity assay was a Factor IX-, X-based assay. The results for each affinity resin are set forth below (Table 6).

[2] = Peptide stability, Asp-Pro changed to Glu-Pro; assay type: physicochemical; conditions: DP changed to EP versus GI-2; Asp-Pro hydrolysis particularly at low pH
Description: Binding polypeptides were synthesized with the amino terminal residue acetylated and the carboxyl terminal residue as a free acid. The two cysteine residues are oxidized and form a disulfide bond which creates a cyclic peptide structure. The residues contained within the cyclic structure are underlined. The peptide sequence is identical to the sequence GI-2 shown in Table 4 except that the aspartic acid residue at position 19 has been changed to glutamic acid (bold).

[3] = molecular target: T2, REFACTO® (factor VIII-like polypeptide, amino acids 1-743 and 1638 through 2332 of human factor VIII) (Homo sapiens, UniProt P00451); assay: Phage ELISA of third-round isolates for binding to the factor VIII target; conditions: TN7 library phage isolates; HRP anti-M13, TMB, absorbance at OD630
T2 construct: amino acids 1-743 and 1638 through 2332 of human factor VIII; purchased Genetics Institute, Inc. (Cambridge, Mass.)
T2 sequence (P00451 20-762): T1 sequence (P00451 20-762)
T2 sequence (P00451 1657-2351): T1 sequence (P00451 1657-2351)
Description: The techniques described above were employed to isolate high affinity binding molecules for ligands for recombinantly produced factor VIII-like polypeptide consisting of two segments of human factor VIII, i.e., amino acids 1-743 and 1638 through 2332 of human factor VIII, as described in U.S. Pat. No. 5,661,008 (Almstedt et al.), obtained under the commercial designation of REFACTO® from Genetics Institute, Inc. (Cambridge, Mass.). The REFACTO® target was provided at a concentration of about 530 μg/ml (7800 IU/ml) in 19.4 mM His, 300 mM NaCl, 3.4 mM CaCl2 and 0.1% Tween 80, pH 7.0.
Three libraries, designated TN7 (5×10^9 amino acid sequence diversity), TN8 (6×10^9 amino acid sequence diversity), and TN9 (5×10^9 amino acid sequence diversity), were constructed for expression of diversified polypeptides on M13 phage. Each library was screened for binders to purified REFACTO®. Each of the libraries was constructed to display a microprotein based on an 11- or 12-amino acid template. The TN7 library utilized a template sequence of Xaa-Xaa-Cys-Xaa-Xaa-Xaa-Xaa-Xaa-Cys-Xaa-Xaa; the TN8 library utilized a template sequence of Xaa-Xaa-Cys-Xaa-Xaa-Xaa-Xaa-Xaa-Xaa-Cys-Xaa-Xaa; the TN9 library utilized a template sequence of Xaa-Cys-Xaa-Xaa-Xaa-Xaa-Xaa-Xaa-Xaa-Cys-Xaa.
Three rounds of screenings were carried out for each library. At the conclusion of the third round of screening eluted phage were propagated, and individual isolates from each library (96 per elution condition) were selected randomly and tested by standard ELISA techniques for binding to the factor VIII target. Bound phage were detected with HRP conjugated anti-M13 polyclonal antibody (Pharmacia). TMB Peroxidase substrate was used for HRP in the ELISA detection mechanism. TMB substrate produces a blue color after peroxidase digestion. The color is quantitated by absorbance at OD630. Phage isolates that provided a significant signal (OD630>0.25) above background were considered positive clones.
Sequence data from the phage isolates were grouped by library and sorted according to the degree of similarity. The frequency at which any given sequence was obtained was noted since this indicates selection for a specific binder.

Row | Substance | capture of the factor VIII target by the affinity resin (in words) [1] | also measured
1 | AEGTGDFCWVFPFQHCADPGPEGGGS-NHNH2 (disulfide 8-16 (inferred)) [CS-459] | captured virtually all of the factor VIII target applied | 
2 | AEGTGDFHCIGVWFCLHDPGPEGGGS-NHNH2 (disulfide 9-15 (inferred)) [CS-455] | inability of the CS-455 and GI-1 resins to capture the target | 
3 | AEGTGDHPCGSWLRPCLHDPGPEGGGS-NHNH2 (disulfide 9-16 (inferred)) [CS-453] | captured virtually all of the factor VIII target applied | 
4 | Ac-AEGTGDRLCSWVSPCSADPEGGGSK (cysteine pairing not given here) [GI-1] | inability of the CS-455 and GI-1 resins to capture the target | 
5 | Acetyl-AEGTGDHRCGSWLHPCLAEPGEGGGGSK (Ac-AEGTGDHRCGSWLHPCLAEPGEGGGGSK; disulfide 9-16 (inferred)) [TN8.2, cyclic disulfide peptide, GI-2 with Asp at position 19 changed to Glu] |  | peptide stability (in words) [2]: improved peptide stability
6 | D04 (RLCSWISPCSA; Selected Phage Display Sequence) |  | ELISA signal [3]: 0.3
